Measurements reported in the supplement of paper PMC10567573.

B1: MYL5 (parent)
chain: DVAGNLDYKALSYVITHGEEKEE

Variants of: B1
Assay: protein stability index of a GFP-peptide fusion (GPS, HEK-293T) (PSI 1-6); higher = more stable
Settings: c terminus: native
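Further: lentivirally expressed fusions sorted by FACS into six bins by GFP to DsRed ratio, PSI derived from sequencing read proportions per bin multiplied by bin number.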

| Variant | protein stability index |
| --- | --- |
| DVAGNLDYKALSYVITSGEEKEE [H17S] | 3.05 |
| DVAGNLDYKALSYVITRGEEKEE [H17R] | 2.25 |
| DVAGNLDYKALSYVITNGEEKEE [H17N] | 3.23 |
| DVAGNLDYKALSYVITAGEEKEE [H17A] | 1.39 |
| DVAGNLDYKALSYVITWGEEKEE [H17W] | 1.79 |
| DVAGNLDYKALSYVITHGEEHEE [K21H] | 1.6 |
| DVAGNLDYKALSYVITHGEEFEE [K21F] | 1.37 |
| DVAGNLDYKALSYVITHGEETEE [K21T] | 2.05 |
| DVAGNLDYKALSYVITHGEEWEE [K21W] | 1.95 |
| DVAGNLDYKALSYVITHGEEVEE [K21V] | 1.54 |
| DVAGNLDYKALSYVITHGEEMEE [K21M] | 1.98 |
| DVAGNLDYKALSYVITHGEEGEE [K21G] | 3.52 |
| DVAGNLDYKALSYVITHGEEYEE [K21Y] | 1.79 |
| DVAGNLDYKALSYVITHGEEPEE [K21P] | 1.72 |
| DVAGNLDYKALSYVITHGEEDEE [K21D] | 4.35 |
| DVAGNLDYKALSYVITHGEEAEE [K21A] | 2.46 |
| DVAGNLDYKALSYVITHGEEEEE [K21E] | 3.8 |
| DVAGNLDYKALSYVITHGEEQEE [K21Q] | 4.06 |
| DVAGNLDYKALSYVITHGEESEE [K21S] | 1.52 |
| DVAGNLDYKALSYVITHGEECEE [K21C] | 2.53 |
| DVAGNLDYKACSYVITHGEEKEE [L11C] | 2.64 |
| DVAGNLDYKASSYVITHGEEKEE [L11S] | 1.36 |
| DVAGNLDYKAGSYVITHGEEKEE [L11G] | 2.48 |
| DVAGNLDYKAKSYVITHGEEKEE [L11K] | 2.08 |
| DVAGNLDYKAMSYVITHGEEKEE [L11M] | 1.15 |

| Variant | protein stability index |
| --- | --- |
| DVAGNLDYKAVSYVITHGEEKEE [L11V] | 1.88 |
| DVAGNLDYKAHSYVITHGEEKEE [L11H] | 2.75 |
| DVAGNLDYKANSYVITHGEEKEE [L11N] | 2.23 |
| DVAGNLDYKAPSYVITHGEEKEE [L11P] | 2.45 |
| DVAGNLDYKAISYVITHGEEKEE [L11I] | 1.93 |
| DVAGNLDYKAASYVITHGEEKEE [L11A] | 2.56 |
| DVAGNLDYKATSYVITHGEEKEE [L11T] | 2.81 |
| DVAGNLDYKAYSYVITHGEEKEE [L11Y] | 2.08 |
| DVAGNLDYKAESYVITHGEEKEE [L11E] | 2.64 |
| DVAGNLDYKALSYVICHGEEKEE [T16C] | 1.53 |
| DVAGNLDYKALSYVIQHGEEKEE [T16Q] | 2.56 |
| DVAGNLDYKALSYVIDHGEEKEE [T16D] | 2.01 |
| DVAGNLDYKALSYVIWHGEEKEE [T16W] | 2.48 |
| DVAGNLDYKALSYVILHGEEKEE [T16L] | 1.27 |
| DVAGNLDYKALSYVIKHGEEKEE [T16K] | 2.65 |
| DVAGNLDYKALSYVIIHGEEKEE [T16I] | 2.33 |
| DVAGNLDYKALSYVIGHGEEKEE [T16G] | 3.04 |
| DVAGNLDYKALSYVIEHGEEKEE [T16E] | 1.99 |
| DVAGNLDYKALSYVIVHGEEKEE [T16V] | 2.35 |
| DVAGNLDYKALSYVIHHGEEKEE [T16H] | 2.48 |
| DVAGNLDYKALSYVINHGEEKEE [T16N] | 3.03 |
| DVAGNLDYKALSYVISHGEEKEE [T16S] | 1.89 |
| DVAGNLDYKALSYVIFHGEEKEE [T16F] | 3.87 |
| DVAGNLDYKALSYVIMHGEEKEE [T16M] | 1.18 |
| DVAGNLDYKWLSYVITHGEEKEE [A10W] | 4.9 |

| Variant | protein stability index |
| --- | --- |
| DVAGNLDYKYLSYVITHGEEKEE [A10Y] | 1.22 |
| DVAGNLDYKALSYVITHGEQKEE [E20Q] | 2.59 |
| DVAGNLDYKALSYVITHGECKEE [E20C] | 1.47 |
| DVAGNLDYKALSYVITHGEYKEE [E20Y] | 2.61 |
| DVAGNLDYKALSYVITHGEFKEE [E20F] | 2.78 |
| DVAGNLDYKALSYVITHGENKEE [E20N] | 2.19 |
| DVAGNLDYKALSYVITHGERKEE [E20R] | 2.46 |
| DVAGNLDYKALSYVITHGESKEE [E20S] | 1.26 |
| DVAGNLDYKALSYVITHGEMKEE [E20M] | 1.77 |
| DVAGNLDYKALSYVITHGETKEE [E20T] | 2.31 |
| DVAGNLDYKALSYVITHGEIKEE [E20I] | 1.81 |
| DVAGNLDYKALSYVITHGEAKEE [E20A] | 3.08 |
| DVAGNLDYKALSYVITHGEPKEE [E20P] | 1.3 |
| DVAGNLDYKALSYVITHGEVKEE [E20V] | 1.27 |
| DVAGNLDYKALSYVITHGEKKEE [E20K] | 2.05 |
| DVAGNLDYKALSYVITHGEDKEE [E20D] | 1.91 |
| DVAGNLDYKALSYVITHGEHKEE [E20H] | 2.53 |
| DVAGNLDYKALVYVITHGEEKEE [S12V] | 1.73 |
| DVAGNLDYKALGYVITHGEEKEE [S12G] | 2.54 |
| DVAGNLDYKALEYVITHGEEKEE [S12E] | 2.13 |
| DVAGNLDYKALLYVITHGEEKEE [S12L] | 1.77 |
| DVAGNLDYKALAYVITHGEEKEE [S12A] | 1.72 |
| DVAGNLDYKALTYVITHGEEKEE [S12T] | 3.01 |
| DVAGNLDYKALRYVITHGEEKEE [S12R] | 1.99 |
| DVAGNLDYKALNYVITHGEEKEE [S12N] | 2.77 |

| Variant | protein stability index |
| --- | --- |
| DVAGNLDYKALKYVITHGEEKEE [S12K] | 2.3 |
| DVAGNLDYKALIYVITHGEEKEE [S12I] | 2.45 |
| DVAGNLDYKALQYVITHGEEKEE [S12Q] | 1.7 |
| DVAGNLDYKALPYVITHGEEKEE [S12P] | 2.46 |
| DVAGNLDYKALSYVITHGEEKLE [E22L] | 4.25 |
| DVAGNLDYKALSYVITHGEEKQE [E22Q] | 4.82 |
| DVAGNLDYKALSYVITHGEEKCE [E22C] | 4.34 |
| DVAGNLDYKALSYVITHGEEKPE [E22P] | 4.22 |
| DVAGNLDYKALSYVITHGEEKFE [E22F] | 4.43 |
| DVAGNLDYKALSYVITHGEEKSE [E22S] | 4.46 |
| DVAGNLDYKALSYVITHGEEKKE [E22K] | 5.21 |
| DVAGNLDYKALSYVITHGEEKAE [E22A] | 4.23 |
| DVAGNLDYKALSYVITHGEEKDE [E22D] | 4.71 |
| DVAGNLDYKALSYVITHGEEKGE [E22G] | 4.27 |
| DVAGNLDYKALSYVITHGEEKHE [E22H] | 4.65 |
| DVAGNLDYKALSYVITHGEEKVE [E22V] | 4.09 |
| DVAGNLDYKALSYVITHGEEKNE [E22N] | 4.88 |
| DVAGNLDYKALSYVITHGEEKRE [E22R] | 4.24 |
| DVAGNLDYKALSYVITHGEEKME [E22M] | 4.25 |
| DVAGNLDYKALSYVITHGEEKYE [E22Y] | 4.13 |
| DVAGNLDYKALSYVITHGEEKWE [E22W] | 3.59 |
| DVAGNLDYKALSYVITHGEEKIE [E22I] | 4.14 |
